Target: Lactobacillus helveticus chlorogenic acid esterase (LhCE), wild type (Lactobacillus helveticus)
Test: crystal structure

In the case of “Lactobacillus helveticus chlorogenic acid esterase (LhCE), wild type (enzyme)”, the stoichiometry N is reported as 2.

From paper doi:10.1101/2023.05.30.542953
